Read-outs that look alike come from different tables or passages of the source.
T1: GST-tagged AIM2 (Invitrogen) (UniProt O14862 1-343)
T1 sequence (looked up): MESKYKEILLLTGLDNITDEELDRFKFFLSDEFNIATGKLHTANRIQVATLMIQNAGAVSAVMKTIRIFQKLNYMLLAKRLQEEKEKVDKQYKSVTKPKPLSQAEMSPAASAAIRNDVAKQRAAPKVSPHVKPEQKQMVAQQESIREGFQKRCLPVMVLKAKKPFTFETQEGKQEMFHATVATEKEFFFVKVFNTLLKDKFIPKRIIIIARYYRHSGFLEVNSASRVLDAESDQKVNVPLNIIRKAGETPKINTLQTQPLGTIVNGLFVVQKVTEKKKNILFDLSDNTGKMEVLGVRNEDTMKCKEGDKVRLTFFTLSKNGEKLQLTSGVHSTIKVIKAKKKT


Experiments:
Test in all cases: BLI
[1] = target: T1, GST-tagged AIM2 (Invitrogen)
[2] = target: T1, GST-tagged AIM2 (Invitrogen); remark: listed apart in the source
[3] = target: T1, GST-tagged AIM2 (Invitrogen); remark: listed apart in the source
[4] = target: T1, GST-tagged AIM2 (Invitrogen); remark: listed apart in the source
[5] = target: T1, GST-tagged AIM2 (Invitrogen); remark: listed apart in the source

| Binder | Kd [4] | koff [4] | kon [4] | also measured |
| --- | --- | --- | --- | --- |
| Recombinant HMGB1 (disulfide HMGB1, not treated with DTT) (natural protein, human, UniProt P09429 1-215, looked up, disulfide bond between cysteines 23 and 45 (the paper calls the protein without DTT disulfide HMGB1)) MGKGDPKKPRGKMSSYAFFVQTCREEHKKKHPDASVNFSEFSKKCSERWKTMSAKEKGKFEDMAKADKARYEREMKTYIPPKGETKKKFKDPNAPKRPPSAFFLFCSEYRPKIKGEHPGLSIGDVAKKLGEMWNNTAADDKQPYEKKAAKLKEKYEKDIAAYRAKGKPDAAKKGVVKAEKSKKKKEEEEDEEDEEDEEEEEDEEDEDEEEDDDDE | 23 nM | 0.00034 s⁻¹ | 14000 M⁻¹ s⁻¹ | Kd [1]: 8 nM; koff [1]: 0.00014 s⁻¹; kon [1]: 17000 M⁻¹ s⁻¹; Kd [2]: 25 nM; koff [2]: 0.00033 s⁻¹; kon [2]: 13000 M⁻¹ s⁻¹; Kd [3]: 20 nM; koff [3]: 0.00034 s⁻¹; kon [3]: 17000 M⁻¹ s⁻¹ |
| Recombinant HMGB1, fully reduced all-thiol form (5 mM DTT) (natural protein, human, UniProt P09429 1-215, looked up) MGKGDPKKPRGKMSSYAFFVQTCREEHKKKHPDASVNFSEFSKKCSERWKTMSAKEKGKFEDMAKADKARYEREMKTYIPPKGETKKKFKDPNAPKRPPSAFFLFCSEYRPKIKGEHPGLSIGDVAKKLGEMWNNTAADDKQPYEKKAAKLKEKYEKDIAAYRAKGKPDAAKKGVVKAEKSKKKKEEEEDEEDEEDEEEEEDEEDEDEEEDDDDE |  |  |  | Kd [5]: 13 nM; koff [5]: 0.00038 s⁻¹; kon [5]: 30000 M⁻¹ s⁻¹ |
| Recombinant HMGB1 A box (disulfide form, not treated with DTT) (domain or fragment, disulfide form (the paper calls the A box without DTT its disulfide form)) MGKGDPKKPRGKMSSYAFFVQTCREEHKKKHPDASVNFSEFSKKCSERWKTMSAKEKGKFEDMAKADKARYEREMKTYI | 41 nM | 0.00261 s⁻¹ | 64000 M⁻¹ s⁻¹ |  |

Now from value to binder, other results behind:

| Kd [4] | koff [4] | kon [4] | Binder | also measured |
| --- | --- | --- | --- | --- |
| 13 nM | 0.00036 s⁻¹ | 27000 M⁻¹ s⁻¹ | Recombinant HMGB1(C45S) (natural protein, human, UniProt P09429 1-215, looked up) MGKGDPKKPRGKMSSYAFFVQTCREEHKKKHPDASVNFSEFSKKSSERWKTMSAKEKGKFEDMAKADKARYEREMKTYIPPKGETKKKFKDPNAPKRPPSAFFLFCSEYRPKIKGEHPGLSIGDVAKKLGEMWNNTAADDKQPYEKKAAKLKEKYEKDIAAYRAKGKPDAAKKGVVKAEKSKKKKEEEEDEEDEEDEEEEEDEEDEDEEEDDDDE |  |
| 12 nM | 0.0003 s⁻¹ | 25000 M⁻¹ s⁻¹ | Recombinant HMGB1(C23S) (natural protein, human, UniProt P09429 1-215, looked up) MGKGDPKKPRGKMSSYAFFVQTSREEHKKKHPDASVNFSEFSKKCSERWKTMSAKEKGKFEDMAKADKARYEREMKTYIPPKGETKKKFKDPNAPKRPPSAFFLFCSEYRPKIKGEHPGLSIGDVAKKLGEMWNNTAADDKQPYEKKAAKLKEKYEKDIAAYRAKGKPDAAKKGVVKAEKSKKKKEEEEDEEDEEDEEEEEDEEDEDEEEDDDDE |  |

From publication PMC5191963 (Hepatology (Baltimore, Md.), 2016)
